Test results taken from publication PMC8876058 (Viruses, 2022).

Columns and labels:
[1] = target: T1, CyPet-Ubc9 (SUMOylation E2 conjugating enzyme Ubc9 fused to the FRET donor CyPet) (human, UniProt P63279 1-158); assay: FRET or BRET; details: both partners purified
T1 construct: also called SUMO E2

[2] = target: T2, CyPet-PIAS1 (SUMOylation E3 ligase PIAS1 fused to the FRET donor CyPet) (human, UniProt O75925 1-651); assay: FRET or BRET; details: both partners purified
T2 construct: also called SUMO E3
T2 sequence (O75925 whole entry, the tested form may be a part): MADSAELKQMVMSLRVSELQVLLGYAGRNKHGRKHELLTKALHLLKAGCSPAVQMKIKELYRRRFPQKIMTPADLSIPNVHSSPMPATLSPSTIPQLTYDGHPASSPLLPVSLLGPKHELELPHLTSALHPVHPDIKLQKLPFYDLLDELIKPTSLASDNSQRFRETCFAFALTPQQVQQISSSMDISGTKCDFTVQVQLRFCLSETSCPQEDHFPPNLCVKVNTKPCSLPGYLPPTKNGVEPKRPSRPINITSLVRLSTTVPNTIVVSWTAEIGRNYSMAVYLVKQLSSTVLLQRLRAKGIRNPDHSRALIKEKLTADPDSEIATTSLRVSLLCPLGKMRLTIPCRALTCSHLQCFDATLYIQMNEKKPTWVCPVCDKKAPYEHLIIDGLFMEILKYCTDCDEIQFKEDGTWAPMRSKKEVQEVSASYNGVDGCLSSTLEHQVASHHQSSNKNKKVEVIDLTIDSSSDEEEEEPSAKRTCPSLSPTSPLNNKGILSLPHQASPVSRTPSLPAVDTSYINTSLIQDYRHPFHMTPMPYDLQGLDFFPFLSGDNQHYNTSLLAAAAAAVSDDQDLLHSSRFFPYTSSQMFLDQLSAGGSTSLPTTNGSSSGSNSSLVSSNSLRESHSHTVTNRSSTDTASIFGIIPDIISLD

T1 sequence (P63279 whole entry, the tested form may be a part): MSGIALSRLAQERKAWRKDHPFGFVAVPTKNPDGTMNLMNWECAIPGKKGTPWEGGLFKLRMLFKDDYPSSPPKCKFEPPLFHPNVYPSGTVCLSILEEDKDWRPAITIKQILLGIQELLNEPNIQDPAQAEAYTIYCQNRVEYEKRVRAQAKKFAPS

B1: YPet-Linker3-M1 (M1 protein of influenza B virus fused to the FRET acceptor YPet) (natural protein)
chain: MSLFGDTIAYLLSLTEDGEGKAELAEKLHCWFGGKEFDLDSALEWIKNKRCLTDIQKALIGASICFLKPKDQERKRRFITEPLSGMGTTATKKKGLILAERKMRRCVSFHEAFEIAEGHESSALLYCLMVMYLNPGNYSMQVKLGTLCALCEKQASHSHRAHSRAARSSVPGVRREMQMVSAMNTAKTMNGMGKGEDVQKLAEELQSNIGVLRSLGASQKNGEGIAKDVMEVLKQSSMGNSALVKKYL
Question: For B1, which Kd [1] is on record?
Answer: 200 nM

Question: And the Kd [2]?
Answer: 220 nM
